Data taken from IntAct's records for PubMed 19468300.

B1: Rac GTPase-activating protein 1 (Homo sapiens), Q9H0H5 (parent)
chain: MDTMMLNVRNLFEQLVRRVEILSEGNEVQFIQLAKDFEDFRKKWQRTDHELGKYKDLLMKAETERSALDVKLKHARNQVDVEIKRRQRAEADCEKLERQIQLIREMLMCDTSGSIQLSEEQKSALAFLNRGQPSSSNAGNKRLSTIDESGSILSDISFDKTDESLDWDSSLVKTFKLKKREKRRSTSRQFVDGPPGPVKKTRSIGSAVDQGNESIVAKTTVTVPNDGGPIEAVSTIETVPYWTRSRRKTGTLQPWNSDSTLNSRQLEPRTETDSVGTPQSNGGMRLHDFVSKTVIKPESCVPCGKRIKFGKLSLKCRDCRVVSHPECRDRCPLPCIPTLIGTPVKIGEGMLADFVSQTSPMIPSIVVHCVNEIEQRGLTETGLYRISGCDRTVKELKEKFLRVKTVPLLSKVDDIHAICSLLKDFLRNLKEPLLTFRLNRAFMEAAEITDEDNSIAAMYQAVGELPQANRDTLAFLMIHLQRVAQSPHTKMDVANLAKVFGPTIVAHAVPNPDPVTMLQDIKRQPKVVERLLSLPLEYWSQFMMVEQENIDPLHVIENSNAFSTPQTPDIKVSLLGPVTTPEHQLLKTPSSSSLSQRVRSTLTKNTPRFGSKSKSATNLGRQGNFFASPMLK
partner: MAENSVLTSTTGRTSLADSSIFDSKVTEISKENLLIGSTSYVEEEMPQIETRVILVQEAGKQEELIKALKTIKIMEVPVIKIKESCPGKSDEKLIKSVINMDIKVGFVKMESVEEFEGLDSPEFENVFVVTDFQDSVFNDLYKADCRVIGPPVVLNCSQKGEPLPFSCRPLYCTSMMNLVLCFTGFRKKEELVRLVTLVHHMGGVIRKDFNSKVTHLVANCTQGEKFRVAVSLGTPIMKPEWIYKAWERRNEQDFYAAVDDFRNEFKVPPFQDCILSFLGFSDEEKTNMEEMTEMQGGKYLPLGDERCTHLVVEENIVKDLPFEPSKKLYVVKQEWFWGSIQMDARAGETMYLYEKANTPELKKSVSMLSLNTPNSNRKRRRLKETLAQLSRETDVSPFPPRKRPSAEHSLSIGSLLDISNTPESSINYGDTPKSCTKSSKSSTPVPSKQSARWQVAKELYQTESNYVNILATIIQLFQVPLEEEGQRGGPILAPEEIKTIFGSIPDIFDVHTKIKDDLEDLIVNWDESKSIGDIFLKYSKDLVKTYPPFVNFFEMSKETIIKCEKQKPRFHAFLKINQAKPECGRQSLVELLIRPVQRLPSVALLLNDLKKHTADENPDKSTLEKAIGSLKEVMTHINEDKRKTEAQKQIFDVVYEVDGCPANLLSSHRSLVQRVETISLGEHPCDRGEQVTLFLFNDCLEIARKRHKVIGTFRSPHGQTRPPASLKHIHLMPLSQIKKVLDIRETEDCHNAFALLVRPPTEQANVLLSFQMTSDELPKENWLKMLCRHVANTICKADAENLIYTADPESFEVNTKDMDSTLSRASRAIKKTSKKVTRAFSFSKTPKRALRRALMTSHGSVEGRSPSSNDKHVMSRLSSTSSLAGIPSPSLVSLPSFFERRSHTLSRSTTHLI
B2: Protein regulator of cytokinesis 1 (Homo sapiens), O43663 (parent)
chain: MRRSEVLAEESIVCLQKALNHLREIWELIGIPEDQRLQRTEVVKKHIKELLDMMIAEEESLKERLIKSISVCQKELNTLCSELHVEPFQEEGETTILQLEKDLRTQVELMRKQKKERKQELKLLQEQDQELCEILCMPHYDIDSASVPSLEELNQFRQHVTTLRETKASRREEFVSIKRQIILCMEALDHTPDTSFERDVVCEDEDAFCLSLENIATLQKLLRQLEMQKSQNEAVCEGLRTQIRELWDRLQIPEEEREAVATIMSGSKAKVRKALQLEVDRLEELKMQNMKKVIEAIRVELVQYWDQCFYSQEQRQAFAPFCAEDYTESLLQLHDAEIVRLKNYYEVHKELFEGVQKWEETWRLFLEFERKASDPNRFTNRGGNLLKEEKQRAKLQKMLPKLEEELKARIELWEQEHSKAFMVNGQKFMEYVAEQWEMHRLEKERAKQERQLKNKKQTETEMLYGSAPRTPSKRRGLAPNTPGKARKLNTTTMSNATANSSIRPIFGGTVYHSPVSRLPPSGSKPVAASTCSGKKTPRTGRHGANKENLELNGSILSGGYPGSAPLQRNFSINSVASTYSEFAKDPSLSDSSTVGLQRELSKASKSDATSGILNSTNIQS
B3: Protein ECT2 (Homo sapiens), Q9H8V3-4 (parent)
chain: MAENSVLTSTTGRTSLADSSIFDSKVTEISKENLLIGSTSYVEEEMPQIETRVILVQEAGKQEELIKALKDIKVGFVKMESVEEFEGLDSPEFENVFVVTDFQDSVFNDLYKADCRVIGPPVVLNCSQKGEPLPFSCRPLYCTSMMNLVLCFTGFRKKEELVRLVTLVHHMGGVIRKDFNSKVTHLVANCTQGEKFRVAVSLGTPIMKPEWIYKAWERRNEQDFYAAVDDFRNEFKVPPFQDCILSFLGFSDEEKTNMEEMTEMQGGKYLPLGDERCTHLVVEENIVKDLPFEPSKKLYVVKQEWFWGSIQMDARAGETMYLYEKANTPELKKSVSMLSLNTPNSNRKRRRLKETLAQLSRETDVSPFPPRKRPSAEHSLSIGSLLDISNTPESSINYGDTPKSCTKSSKSSTPVPSKQSARWQVAKELYQTESNYVNILATIIQLFQVPLEEEGQRGGPILAPEEIKTIFGSIPDIFDVHTKIKDDLEDLIVNWDESKSIGDIFLKYSKDLVKTYPPFVNFFEMSKETIIKCEKQKPRFHAFLKINQAKPECGRQSLVELLIRPVQRLPSVALLLNDLKKHTADENPDKSTLEKAIGSLKEVMTHINEDKRKTEAQKQIFDVVYEVDGCPANLLSSHRSLVQRVETISLGEHPCDRGEQVTLFLFNDCLEIARKRHKVIGTFRSPHGQTRPPASLKHIHLMPLSQIKKVLDIRETEDCHNAFALLVRPPTEQANVLLSFQMTSDELPKENWLKMLCRHVANTICKADAENLIYTADPESFEVNTKDMDSTLSRASRAIKKTSKKVTRAFSFSKTPKRALRRALMTSHGSVEGRSPSSNDKHVMSRLSSTSSLAGIPSPSLVSLPSFFERRSHTLSRSTTHLI
partner: B1 chain

Variants of: B1
Details: with ect2_human ECT2, Q9H8V3

effect of a mutation on the interaction | Variant
disrupting interaction | S149A;S157A;S164A;S170A

Variants of: B2
Details: with plk1_human PLK1, P53350
Chain of plk1_human PLK1, P53350 (P53350 whole entry): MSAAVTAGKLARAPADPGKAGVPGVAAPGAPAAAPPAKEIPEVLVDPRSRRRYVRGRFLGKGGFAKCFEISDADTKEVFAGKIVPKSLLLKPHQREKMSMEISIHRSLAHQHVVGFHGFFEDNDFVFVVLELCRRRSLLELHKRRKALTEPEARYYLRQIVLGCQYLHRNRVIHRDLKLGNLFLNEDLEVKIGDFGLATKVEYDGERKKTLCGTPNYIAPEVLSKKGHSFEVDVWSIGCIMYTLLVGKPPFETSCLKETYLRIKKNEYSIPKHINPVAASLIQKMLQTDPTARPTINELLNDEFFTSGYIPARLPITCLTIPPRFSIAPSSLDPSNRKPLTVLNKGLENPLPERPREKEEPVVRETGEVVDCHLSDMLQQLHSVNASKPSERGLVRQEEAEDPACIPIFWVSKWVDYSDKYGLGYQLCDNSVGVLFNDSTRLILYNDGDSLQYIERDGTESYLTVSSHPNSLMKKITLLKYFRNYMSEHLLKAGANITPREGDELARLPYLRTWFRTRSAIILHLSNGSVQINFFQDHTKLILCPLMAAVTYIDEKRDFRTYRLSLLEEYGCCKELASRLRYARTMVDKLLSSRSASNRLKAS

effect of a mutation on the interaction | Variant
disrupting interaction strength | S615A;T616A

Variants of: B3
Details: with rgap1_human RACGAP1, Q9H0H5

effect of a mutation on the interaction | Variant
disrupting interaction strength | T153A
disrupting interaction | K195A
disrupting interaction strength | T153A;K195A
